Data on three molecules can be found in PMC7956486, “Conversion of Racemic Unnatural Amino Acids to Optically Pure Forms by a Coupled Enzymatic Reaction” (Molecules, 2021).

For one data set, the target named is T1, TtAT (Thermus thermophilus, UniProt Q75WK2).
T1 construct: gene TthHB5018_10190; C-terminal His6 tag, amplified from genomic DNA, plasmid pET20b-ttGlnAT, expressed in E. coli BL21(DE3), Ni-NTA purified
As to the kind of experiment: PLP to PMP conversion, absorbance decrease at […] nm. The format is biochemical. The note with it: 50 mM HEPES-NaOH pH 8.0, 0.1 M KCl, 25 °C, 20 μM enzyme, no amine acceptor; racemate used as amine donor.

Substrate in data set [1]: N[C@H](Cc1ccc2ccccc2c1)C(=O)O
As to the kind of experiment: purified protein. To be noted: 75 mM phosphate pH 8.5, 1 mM o-dianisidine, 1 U HRP, 25 °C, 11.9 nM enzyme.

Substrate in data set [2]: NC(Cc1ccc(-c2ccccn2)nc1)C(=O)O
Nature of the data set: purified protein. The data set is classed as biochemical, Rhodotorula toruloides. The note with it: 75 mM phosphate pH 8.5, 1 mM o-dianisidine, 1 U HRP, 25 °C, 119 nM enzyme, racemate used, value calibrated accordingly.

Substrate in data set [3]: NC(Cc1cnc2c(O)cccc2c1)C(=O)O
Nature of the data set: purified protein. The note with it: 75 mM phosphate pH 8.5, 1 mM o-dianisidine, 1 U HRP, 25 °C, 119 nM enzyme, racemate used, value calibrated accordingly. The format is biochemical, Rhodotorula toruloides.

T1 sequence (Q75WK2 entry or part of it): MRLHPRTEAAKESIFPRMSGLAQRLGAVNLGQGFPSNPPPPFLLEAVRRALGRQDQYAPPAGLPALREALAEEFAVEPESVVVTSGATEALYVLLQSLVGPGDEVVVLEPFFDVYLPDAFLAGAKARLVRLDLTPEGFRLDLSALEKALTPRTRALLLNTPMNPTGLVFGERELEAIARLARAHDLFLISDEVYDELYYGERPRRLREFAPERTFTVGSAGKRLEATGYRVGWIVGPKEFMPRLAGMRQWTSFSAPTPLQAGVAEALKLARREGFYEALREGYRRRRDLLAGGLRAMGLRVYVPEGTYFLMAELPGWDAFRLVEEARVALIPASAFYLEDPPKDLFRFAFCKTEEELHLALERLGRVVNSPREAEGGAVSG

Consider `NC(Cc1ccc(-c2ccccn2)nc1)C(=O)O` (racemic) [BPA, L-BPA], for which the “PLP to PMP conversion, absorbance decrease at 430 nm” value at TtAT was “This result indicates that TtAT recognizes BPA and HQA as substrates”.

With `NC(Cc1cnc2c(O)cccc2c1)C(=O)O` (racemic) [HQA, L-HQA], the “PLP to PMP conversion, absorbance decrease at 430 nm” value at TtAT is “This result indicates that TtAT recognizes BPA and HQA as substrates”.

B1: RgDAAO (Rhodotorula toruloides) (protein)
chain: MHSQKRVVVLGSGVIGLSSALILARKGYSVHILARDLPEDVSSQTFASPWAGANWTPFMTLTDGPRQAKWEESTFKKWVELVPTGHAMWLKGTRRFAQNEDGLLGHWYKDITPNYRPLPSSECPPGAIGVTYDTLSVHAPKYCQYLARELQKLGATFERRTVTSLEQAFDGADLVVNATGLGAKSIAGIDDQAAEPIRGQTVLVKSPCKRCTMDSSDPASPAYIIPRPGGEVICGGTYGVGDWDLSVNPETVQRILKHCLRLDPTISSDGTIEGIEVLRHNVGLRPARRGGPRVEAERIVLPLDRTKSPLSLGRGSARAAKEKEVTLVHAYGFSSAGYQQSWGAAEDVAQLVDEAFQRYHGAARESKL
notes: synthetic gene, N-terminal His6 tag, expressed in E. coli, Ni-NTA purified
Consider B1, for which, in the data set “purified protein [1]”, the Km is given as 0.052 ± 0.0087 mM, the catalytic constant (kcat) stood at 28.5 s⁻¹ and the specificity constant (kcat/Km) is 550000 M⁻¹ s⁻¹. Further, in the data set “purified protein [2]”, the Km was determined as 0.087 ± 0.010 mM, the turnover number (kcat) was determined as 7.47 ± 0.333 s⁻¹ and the kcat/Km is 86700 M⁻¹ s⁻¹. Further, in the data set “purified protein [3]”, the Km is on record as 0.043 ± 0.0094 mM, the kcat was determined as 2.067 ± 0.00667 s⁻¹ and the kcat/Km is 48300 M⁻¹ s⁻¹.
